Data set [1] has as its target T1, GST-Xl-dsRBD (XlrbpA dsRBD2) (Xenopus laevis) (UniProt Q91836).
T1 sequence: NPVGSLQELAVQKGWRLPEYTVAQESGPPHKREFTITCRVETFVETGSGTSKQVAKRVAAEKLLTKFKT
Briefly: EMSA. To be noted: scale: fold higher affinity than P1. A general note: A gel shift assay detects complexes by their altered migration in electrophoresis.

For data set [2], the target named is T2, GST-Xl-dsRBD (XlrbpA dsRBD2) (Xenopus laevis, UniProt Q91836 112-180).
T2 sequence: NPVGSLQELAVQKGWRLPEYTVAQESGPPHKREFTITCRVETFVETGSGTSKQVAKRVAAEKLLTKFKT
The data set can be described thus: EMSA.

In data set [1], 30-bp dsRNA showed a binding signal of 30.
Same read-out and setting: the figure for 70-bp dsRNA is 30.
In the case of 50-bp dsRNA, the binding signal in data set [1] came to 30.
The molecule 130-bp dsRNA showed a binding signal in data set [1] of 30.

B1: 21blunt (dsRNA)
RNA 1: AAGUCACAUUGCCCAAGUCUC
RNA 2: GAGACUUGGGCAAUGUGACUU
On to B1, for which, in data set [2], the binding result is given as “binds”.

The values are drawn from PMC3753931.
